B1: mTRAIL-R: N99/N122/N150Q (protein)
parent chain: MEPPGPSTPTASAAARADHYTPGLRPLPKRRLLYSFALLLAVLQAVFVPVTANPAHNRPAGLQRPEESPSRGPCLAGQYLSEGNCKPCREGIDYTSHSNHSLDSCILCTVCKEDKVVETRCNITTNTVCRCKPGTFEDKDSPEICQSCSNCTDGEEELTSCTPRENRKCVSKTAWASWHKLGLWIGLLVPVVLLIGALLVWKTGAWRQWLLCIKRGCERDPESANSVHSSLLDRQTSSTTNDSNHNTEPGKTQKTGKKLLVPVNGNDSADDLKFIFEYCSDIVPFDSWNRLMRQLGLTDNQIQMVKAETLVTREALYQMLLKWRHQTGRSASINHLLDALEAVEERDAMEKIEDYAVKSGRFTYQNAAAQPETGPGGSQCV
B2: mTRAIL-R: tunicamycin (protein)
parent chain: B1 parent chain

Legend:
[1] = cell surface staining, flow cytometry; reducing immunoblot; conditions: glycan lost; control: WT mTRAIL-R
[2] = non-reducing SDS-PAGE immunoblot, transient overexpression; conditions: glycan lost; control: WT mTRAIL-R
[3] = streptavidin pulldown, non-reducing immunoblot; conditions: glycan lost; control: untreated MEFs
[4] = cell surface flow cytometry, 7 h TU; conditions: glycan lost; control: untreated MEFs

Row | Protein | expression_or_secretion [1] | oligomerisation [2] | oligomerisation [3] | localisation_or_trafficking [4]
1 | B1 | no change, the mean intensity of the signal was even weaker for the N99/N122/N150Q mTRAIL-R-expressing cells | changes | – | –
2 | B2 | – | – | changes | no change
